Measured values reported in publication PMC10352136 (Nature Structural & Molecular Biology, 2023).
Positions count from the first letter of the chain named. Numbers in names are those of the source.

T1: SNX5^PX (PX domain of SNX5) (human, UniProt Q9Y5X3 25-172)
T1 construct: PX domain of sorting nexin 5 (SNX5), human; also called SNX5^PX domain; isolated PX domain; source: E. coli BL21 (DE3), purified (Ni-NTA, TEV cleavage, ion exchange, SEC); not shown: His6-MBP, N-terminal, cleaved
T1 sequence (looked up): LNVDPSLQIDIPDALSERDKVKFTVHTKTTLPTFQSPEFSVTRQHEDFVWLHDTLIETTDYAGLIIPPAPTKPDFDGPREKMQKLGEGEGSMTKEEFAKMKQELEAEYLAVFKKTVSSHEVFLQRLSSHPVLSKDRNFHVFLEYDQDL

B1: SUMO-CI-MPR_(2330–2491) (entire cytosolic tail domain of CI-MPR) (domain or fragment, UniProt P11717 2330-2491, looked up)
chain: ERRETVISKLTTCCRRSSNVSYKYSKVNKEEETDENETEWLMEEIQLPPPRQGKEGQENGHITTKSVKALSSLHGDDQDSEDEVLTIPEVKVHSGRGAGAESSHPVRNAQSNALQEREDDRVGLVRGEKARKGKSSSAQQKTVSSTKLVSFHDDSDEDLLHI
notes: cation-independent mannose-6-phosphate receptor (CI-MPR), cytosolic tail, residues 2330-2491; also called CI-MPR tail domain; cytoplasmic domain of the CI-MPR; source: E. coli Rosetta (DE3), purified; not shown: His6-SUMO3, N-terminal, kept
B2: CI-MPR_(2330–2491) cytosolic tail with an N-terminal cysteine, cross-linked to liposomes (domain or fragment, UniProt P11717 2330-2491, looked up)
chain: B1 chain
modifications: N-terminal cysteine cross-linked to maleimide-functionalized lipid (DSPE-Mal) on liposomes
notes: cation-independent mannose-6-phosphate receptor (CI-MPR), cytosolic tail, residues 2330-2491; also called CI-MPR tail; source: E. coli Rosetta (DE3), purified, conjugated to DSPE-Mal liposomes; not shown: Cys (added for chemical cross-linking), N-terminal, kept
B3: SNX5 (4 mut)^‡ (Y219A, M233A, V240A, R368A) (natural protein, human, UniProt Q9Y5X3 1-404, looked up)
chain: MAAVPELLQQQEEDRSKLRSVSVDLNVDPSLQIDIPDALSERDKVKFTVHTKTTLPTFQSPEFSVTRQHEDFVWLHDTLIETTDYAGLIIPPAPTKPDFDGPREKMQKLGEGEGSMTKEEFAKMKQELEAEYLAVFKKTVSSHEVFLQRLSSHPVLSKDRNFHVFLEYDQDLSVRRKNTKEMFGGFFKSVVKSADEVLFTGVKEVDDFFEQEKNFLINAYNRIKDSCVKADKATRSHKNAADDYIHTAACLHSLALEEPTVIKKYLLKVAELFEKLRKVEGRVSSDEDLKLTELLRYYMLNIEAAKDLLYRRTKALIDYENSNKALDKARLKSKDVKLAEAHQQECCQKFEQLSESAKEELINFKRKAVAAFRKNLIEMSELEIKHARNNVSLLQSCIDLFKNN
notes: sorting nexin 5 (SNX5), human, four point mutations; source: E. coli BL21 (DE3), purified (glutathione Sepharose, TEV cleavage, SEC); not shown: GST, N-terminal, cleaved
B4: SNX5^FL (full-length sorting nexin 5) (natural protein, human, UniProt Q9Y5X3 1-404, looked up)
chain: B3 chain with A219Y, A233M, A240V, A368R
notes: sorting nexin 5 (SNX5), human, full length; Monomer by SEC-MALS; also called SNX5^WT; source: E. coli BL21 (DE3), purified (glutathione Sepharose, TEV cleavage, SEC); not shown: GST, N-terminal, cleaved
B5: SNX5 (6 mut)^§ (Y219A, M233A, V240A, R368A, I398A, F401A) (natural protein, human, UniProt Q9Y5X3 1-404, looked up)
chain: B3 chain with I398A, F401A
notes: sorting nexin 5 (SNX5), human, six point mutations; source: E. coli BL21 (DE3), purified (glutathione Sepharose, TEV cleavage, SEC); not shown: GST, N-terminal, cleaved
B6: CI-MPR_(2347–2375) peptide (bipartite sorting motif of the cation-independent mannose-6-phosphate receptor tail) (peptide, UniProt P11717 2347-2375, looked up)
peptide: SNVSYKYSKVNKEEETDENETEWLMEEIQ
notes: Called a peptide in the ITC methods; also called shorter CI-MPR tail segment

Key:
Details in all cases: both partners purified
[1] = target: T2, ESCPE-1 (SNX1^FL–SNX5^FL heterodimer) (human, UniProt Q13596 1-522; Q9Y5X3 1-404); test: ITC; 25 °C, 300 mM NaCl, 0.5 mM TCEP, 25 mM HEPES pH 7.5; CI-MPR in the syringe (SNX1^PX in the syringe for its test with the peptide); one-site model
T2 construct: sorting nexin 1 (SNX1), human, full length; sorting nexin 5 (SNX5), human, full length; Single heterodimer by SEC-MALS; The GST tag is called cleavable; also called SNX1–SNX5; SNX1^WT-SNX5^WT; source: E. coli BL21 (DE3), pellets mixed and lysed together, purified (glutathione Sepharose, Ni-NTA, SENP2, ion exchange, SEC); not shown: His6-SUMO3, N-terminal, cleaved; copies: 1 + 1

[2] = target: B4; test: as above
[3] = target: T2, ESCPE-1 (SNX1^FL–SNX5^FL heterodimer); test: liposome flotation; CI-MPR_(2330–2491) cross-linked by its N-terminal cysteine to DSPE-Mal (1–6%) on liposomes without phosphoinositides; SNXs incubated 1 h at 4 °C in buffer G; sucrose gradient, floated fraction on SDS-PAGE
[4] = target: B4; test: as above
His-SUMO-SNX1 = target: T3, His-SUMO-SNX1 (human, UniProt Q13596 1-522); test: pull-down; 5 µM His-SUMO-SNX1 or mutant held on Ni-NTA beads, 10 µM SNX5 or mutant; 1 h at 4 °C in 150 mM NaCl, 10 mM imidazole, 0.5 mM TCEP, 10 mM HEPES pH 7.5; Coomassie-stained SDS-PAGE
T3 construct: sorting nexin 1 (SNX1), human, full length; Bait of the Ni-NTA pull-down; also called wild-type (WT) SNX1; source: E. coli BL21 (DE3), purified (tag-removal step omitted); not shown: His6-SUMO3, N-terminal, kept

His-SUMO-SNX1 (2× mut)^† = target: T4, His-SUMO-SNX1 (2× mut)^† (human, UniProt Q13596 1-522, F347A | W511A); test: as above
T4 construct: sorting nexin 1 (SNX1), human, full length, double mutant; Bait of the Ni-NTA pull-down; source: E. coli BL21 (DE3), purified (tag-removal step omitted); not shown: His6-SUMO3, N-terminal, kept

[5] = target: T5, SNX1^FL (full-length sorting nexin 1) (human, UniProt Q13596 1-522); test: SEC-MALS; 100 μl of protein at 1 mg ml^−1 in 150 mM NaCl, 0.5 mM TCEP, 10 mM HEPES pH 7.5; Superdex 200 Increase 10/300 GL
T5 construct: sorting nexin 1 (SNX1), human, full length; Homodimer by SEC-MALS; also called SNX1 WT; source: E. coli BL21 (DE3), purified (Ni-NTA, SENP2 tag cleavage, ion exchange, SEC); not shown: His6-SUMO3, N-terminal, cleaved

[6] = target: T6, SNX1^BAR–SNX5^FL heterodimer (human, UniProt Q13596 301-522; Q9Y5X3 1-404); test: ITC; 25 °C, 300 mM NaCl, 0.5 mM TCEP, 25 mM HEPES pH 7.5; CI-MPR in the syringe (SNX1^PX in the syringe for its test with the peptide); one-site model
T6 construct: BAR domain of SNX1, human; sorting nexin 5 (SNX5), human, full length; also called SNX1^BAR–SNX5 partial heterodimer; source: E. coli BL21 (DE3), purified as for SNX1^FL–SNX5^FL; not shown: His6-SUMO3, N-terminal, cleaved; copies: 1 + 1

[7] = target: T1, SNX5^PX (PX domain of SNX5); test: as above
[8] = target: T1, SNX5^PX (PX domain of SNX5); test: ITC; 25 °C, 300 mM NaCl, 0.5 mM TCEP, 25 mM HEPES pH 7.5; 445 µM CI-MPR_(2347–2375) peptide titrated into a mix of 100 µM SNX1^BAR and 20 µM SNX5^PX; one-site model

T2 sequence (Q13596 whole entry, one chain of several): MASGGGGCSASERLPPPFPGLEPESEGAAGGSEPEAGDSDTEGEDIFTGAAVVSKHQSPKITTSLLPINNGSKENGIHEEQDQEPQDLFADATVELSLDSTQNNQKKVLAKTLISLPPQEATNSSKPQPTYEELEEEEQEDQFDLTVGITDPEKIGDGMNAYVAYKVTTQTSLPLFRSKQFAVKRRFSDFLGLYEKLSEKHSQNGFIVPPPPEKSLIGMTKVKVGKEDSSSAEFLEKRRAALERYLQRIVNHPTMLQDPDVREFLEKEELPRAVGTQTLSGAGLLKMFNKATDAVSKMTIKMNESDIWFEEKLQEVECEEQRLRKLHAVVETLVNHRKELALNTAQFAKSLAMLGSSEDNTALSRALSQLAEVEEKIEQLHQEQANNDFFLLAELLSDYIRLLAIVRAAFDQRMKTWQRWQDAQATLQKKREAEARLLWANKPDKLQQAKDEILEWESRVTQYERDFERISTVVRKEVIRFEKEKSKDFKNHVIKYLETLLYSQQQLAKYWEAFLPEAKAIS
T3 sequence (Q13596 whole entry): as the sequence (Q13596 whole entry, one chain of several) above
T4 sequence (Q13596 whole entry F347A/W511A): as the sequence (Q13596 whole entry, one chain of several) above, with F347A, W511A counted along it
T6 sequence (Q13596 301-522, chain 1 of 2): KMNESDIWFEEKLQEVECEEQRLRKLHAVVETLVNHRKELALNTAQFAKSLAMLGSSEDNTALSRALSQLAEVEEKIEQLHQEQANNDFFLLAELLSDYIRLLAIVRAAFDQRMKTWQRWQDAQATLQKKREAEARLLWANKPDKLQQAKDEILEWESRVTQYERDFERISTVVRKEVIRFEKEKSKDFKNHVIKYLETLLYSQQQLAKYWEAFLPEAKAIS
T6 sequence (Q9Y5X3 whole entry, chain 2 of 2, the tested form may be a part): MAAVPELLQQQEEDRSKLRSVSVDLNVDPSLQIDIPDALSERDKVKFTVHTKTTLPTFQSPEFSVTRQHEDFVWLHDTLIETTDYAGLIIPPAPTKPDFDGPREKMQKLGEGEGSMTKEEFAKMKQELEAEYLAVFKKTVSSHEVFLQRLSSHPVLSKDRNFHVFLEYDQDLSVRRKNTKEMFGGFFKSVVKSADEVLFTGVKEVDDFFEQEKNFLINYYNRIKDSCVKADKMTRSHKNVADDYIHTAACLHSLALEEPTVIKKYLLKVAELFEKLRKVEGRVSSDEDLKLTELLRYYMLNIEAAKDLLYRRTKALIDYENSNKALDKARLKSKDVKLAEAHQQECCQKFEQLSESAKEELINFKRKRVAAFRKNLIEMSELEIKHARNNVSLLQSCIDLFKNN
T5 sequence (Q13596 whole entry): as the sequence (Q13596 whole entry, one chain of several) above

| Kd [1] [nM] | binding result (His-SUMO-SNX1) | binding result (His-SUMO-SNX1 (2× mut)^†) | further results | Binder |
| --- | --- | --- | --- | --- |
| 2600 | – | – | Kd [2]: ~8800 nM | B1 |
| – | – | – | binding result [3]: binds; binding result [4]: binds | B2 |
| – | binds | binds | – | B3 |
| – | binds | binds | binding result [5]: binds | B4 |
| – | binds | – | – | B5 |
| 1500 | – | – | Kd [6]: ~1900 nM; Kd [7]: ~8000 nM; KD into a mixture of SNX5^PX and SNX1^BAR [8]: ~3200 nM | B6 |
